B1: PMSR3: human PMS2 homolog, dominant negative mismatch repair inhibitor (SEQ ID NO:19/20) (protein, listed as Homo sapiens)
chain: MCPWRPRLGRRCMVSPREADLGPQKDTRLDLPRSPARAPREQNSLGEVDRRGPREQTRAPATAAPPRPLGSRGAEAAEPQEGLSATVSACFQEQQEMNTLQGPVSFKDVAVDFTQEEWRQLDPDEKIAYGDVMLENYSHLVSVGYDYHQAKHHHGVEVKEVEQGEEPWIMEGEFPCQHSPEPAKAIKPIDRKSVHQICSGPVVLSLSTAVKELVENSLDAGATNIDLKLKDYGVDLIEVSDNGCGVEEENFEGLISFSSETSHM
B2: PMSR2: human PMS2 related gene/protein, PMS2 homolog, dominant negative mismatch repair inhibitor (SEQ ID NO:17/18) (protein, listed as Homo sapiens)
chain: MAQPKQERVARARHQRSETARHQRSETAKTPTLGNRQTPTLGNRQTPRLGIHARPRRRATTSLLTLLLAFGKNAVRCALIGPGSLTSRTRPLTEPLGEKERREVFFPPRPERVEHNVESSRWEPRRRGACGSRGGNFPSPRGGSGVASLERAENSSTEPAKAIKPIDRKSVHQICSGPVVPSLRPNAVKELVENSLDAGATNVDLKLKDYGVDLIEVSGNGCGVEEENFEGFTLKHHTCKIQEFADLTQVETFGFRGEALSSLCALSDVTISTCRVSAKVGTRLVFDHYGKIIQKTPYPRPRGMTVSVKQLFSTLPVHHKEFQRNIKKKRACFPFAFCRDCQFPEASPAMLPVQPVELTPRSTPPHPCSLEDNVITVFSSVKNGPGSSR

Key:
[1] = system: Yeast cells that express hPMS2-R2; assay: Chemical mutagen (EMS) plus MMR-defective yeast, ura mutant selection on 5-FOA plates; type: cell-based; conditions: EMS 0-200 pM, 30-120 minutes; PMS2-R2 cultures induced with methanol vs uninduced parental or wild type strain
Excerpt: It has been previously documented that MMR deficiency yields to increased mutation frequency and increased resistance to toxic effects of chemical mutagens (CM) and their respective analogues such as but not limited to those as: ethidium bromide, EMS, MNNG, MNU, Tamoxifen, 8-Hydroxyguanine, as well as others listed but not limited to in publications by: Khromov-Borisov, N. N., et al. (1999) Mutat. Res. 430:55-74; Ohe, T. et al. (1999) Mutat. Res. 429:189-199; Hour, T. C. et al. (1999) Food Chem. Toxicol. 37:569-579; Hrelia, P. et al. (1999) Chem. Biol. Interact. 118:99-111; Garganta, F. et al. (1999) Environ. Mol. Mutagen. 33:75-85; Ukawa-Ishikawa S. et al. (1998) Mutat. Res. 412:99-107; www.ehs.utah.edu/ohh/mutagens; Marcelino, L. A. et al (1998) Cancer Res. 58(13):2857-2862; Koi, M. et al. (1994) Cancer Res. 54:4308-4312. Mismatch repair provokes chromosome aberrations in hamster cells treated with methylating agents or 6thioguanine, but not with ethylating agents.
Yeast cells that express hPMS2-R2 (induced or un-induced) and empty vector control cells are grown as described in Examples 5 and 6) and for 24 hours and diluted into MM medium as described above. Next, the cells in MM are incubated either with or without increasing amounts of ethyl methane sulfonate (EMS) from 0, 1, 10, 50, 100, and 200 pM. […] Mutants are selected and scored as above. […]

[2] = system: wild type yeast cell; conditions: mutagen treatment; Boeke et al. 1984; cited from earlier work
[3] = system: 293 cells; assay: β-galactosidase activity from MMR-sensitive pCAR-OF reporter; type: cell-based; conditions: 293 cells expressing the homolog plus pCAR-OF reporter, grown 17 days; FIG. 5
Excerpt: Cells in which MMR activity is decreased results in MI leading to insertion-deletion mutations within the β-galactosidase gene, a subset of which will restore the open reading frame (ORF) and produce functional enzyme. Cells are grow for 17 days and then harvested for protein lysates to measure β-galactosidase activity generated by each cell line. Cells in which a high rate of mutagenesis has occurred will produce β-galactosidase activity, while cells in which MMR activity is functional will retain background levels of enzymatic activity. Each cell line was tested in two independent experiments (experiment 1 and experiment 2). Extracts were incubated with a calorimetric galactose substrate for 1 hour. Enzyme activity as a function of substrate conversion was measured by optical density at 576 nm as described (Nicolaides, N. C. et al. (1998) Mol. Cell. Biol. 18:1635-1641). […] MI was monitored at the gene level to confirm that genetic alterations occurred within the polynucleotide repeat disrupting the β-galactosidase ORF.

[4] = system: Pichia pastoris yeast cells; assay: Generation of uracil requiring mutants, 5-FOA selection after methanol induction; type: cell-based
Experimental: Pichia pastoris yeast cells were transformed with pPIC3.5K vector, pPIC3.5K-PMS134, and pPIC3.5K-hR2 as follows. First, 5 ml of YPD (1% yeast extract, 2% bacto-peptone, 1% dextrose) medium was inoculated with a single colony from a YPD plate (same as YPD liquid but add 2% Difco agar to plate) and incubated with shaking overnight at 30° C. The overnight culture was used to inoculate 500 ml of YPD medium (200 ul of overnight culture) and the culture incubated at 30° C. until the optical density at 600 nm reached 1.3 to 1.5. The cells were then spun down (4000×g for 10 minutes), and then washed 2 times in sterile water (one volume each time), then the cells suspended in 20 ml of 1 M sorbitol. The sorbitol/cell suspension was spun down (4,000×g for 10 minutes) and suspended in 1 ml of 1 M sorbitol. 80 ul of the cell suspension was mixed with 5 to 10 ug of linearized plasmid DNA and placed in a 0.2 cm cuvette, pulsed length 5 to 10 milliseconds at field strength of 7,500 V/cm. Next, the cells are diluted in 1 ml of 1 M sorbitol and transferred to a 15 ml tube and incubated at 30° C. for 1 to 2 hours without shaking. Next, the cells are spun out (4,000×G for 10 minutes) and suspended in 100 ul of sterile water, and 50 ul/plate spread onto the appropriate selective medium plate. The plates are incubated for 2 to 3 days at 30° C. and colonies patched out onto YPD plates for further testing. […]

Row | Molecule | frequency of ura mutants [1] | number of ura mutants [2] | microsatellite instability / β-galactosidase activity [3] | uracil requiring clones on 5-FOA selection medium ([4]; methanol induced culture) | colonies resistant to 5-FOA ([4]; uninduced culture)
1 | CCOS(C)(=O)=O [EMS, ethyl methane sulfonate] | increase in the frequency of ura mutants | low number of ura mutants |  |  | 
2 | B1 |  |  | high degree of MI leading to an increase in β-galactosidase activity |  | 
3 | B2 |  |  | high degree of MI leading to an increase in β-galactosidase activity | have clones that are capable of growth on the selection medium | does not have any colonies that are resistant to 5-FOA

— patent US20030170895A1, “Methods of making hypermutable cells using PMSR homologs” (priority 2002, published 2003)
